Substitutions are numbered along the chain they refer to. Blank lines part the entries; values can stand above or below the binder they belong to.
Legend:
[1] = molecular target: epidermal growth factor receptor (EGFR), Example 4A analyte (UniProt P00533); assay: SPR (Biacore 8K+), fusion protein amine-coupled to CM5, EGFR 200 nM, report point late binding
[2] = molecular target: EGFR (SinoBiological, 10001-H08H) (UniProt P00533); assay: SPR (Biacore 8K+), fusion protein amine-coupled to CM5, EGFR 200 nM
[3] = molecular target: trastuzumab-GFP (prepared in-house); assay: SPR (Biacore 8K+), fusion protein amine-coupled to CM5, Fc block 2 uM, then trastuzumab-GFP 1 uM

Binding capacity EGFR (200 nM) (RU) [1]: 2350 RU
B1: Candidate 4A-5: vh167 fusion protein (SEQ ID NO:169) (VHH)
VHH: QVQLQQSGGGSVQAGGSLRLSCTISGRTFSSYAMGWFRQRPGKEREFVAAINWSSGSTYYADSVKGRFTISRDNAKNTVYLQMNSLKPEDTAVYYCAAGYQINSGNYNFKDYEYDYWGQGTQVTVSS

EGFR response in analyte binding late (200 nM, RU) [2]: 1900 RU
B2: Candidate 4B-4: vh167 fusion protein (SEQ ID NO:175) (VHH)
VHH: B1 VHH

trastuzumab-eGFP response in analyte binding late (1 µM, RU) [3]: 4300 RU
B3: Candidate 4B-5: vh60 fusion protein (SEQ ID NO:172) (VHH)
VHH: QVQLQESGGGLVQPGGSLRLSCAASGRTSINPYMAWFRQAPGKQREFVAAISSGGVYTYYTDSVKGRFTISRDNAKTTVYLQMNSLKPEDTAVYYCAADFRRGGNWNVDPFRYDYQYWGQGTQVTVSS

trastuzumab-eGFP response in analyte binding late (1 µM, RU) [3]: 3910 RU
B4: Candidate 4B-6: vh113 fusion protein (SEQ ID NO:173) (VHH)
VHH: B3 VHH with E6Q, L11S, P14A, A23T, A24I, A40R, Q44E, T61A, T77N, Q116D

— patent EP4541814A1
